Results as given in PMC2500141 (The Journal of Cell Biology, 2008).

Target: Drp1-6His phosphorylated at Ser600 by CaMKIα (UniProt O00429-4 1-699, phosphoserine at 600 (phosphorylated in vitro by CaMKIα))
Test: pull-down

binding result: binds
B1: GST-hFis1 (hFis1-ΔC, without 30 amino acids at the C terminus) (domain or fragment, human, UniProt Q9Y3D6 1-122, looked up)
chain: MEAVLNELVSVEDLLKFEKKFQSEKAAGSVSKSTQFEYAWCLVRSKYNDDIRKGIVLLEELLPKGSKEEQRDYVFYLAVGNYRLKEYEKALKYVRGLLQTEPQNNQAKELERLIDKAMKKDG
